Results: patent US20190256586A1 (Johns Hopkins, published 2019)

Target: T1, recombinant PSSP17 (117 amino acid fragment of P. falciparum PSSP17 with a HIS tag, expressed in E. coli) (Plasmodium falciparum)
T1 construct: Antigen used to raise 10E2B7 and 27C9B5; spiked into naive human saliva in the lateral flow assays; also called recombinant PfPSSP17; recombinant subunit PSSP17; not shown: HIS tag from the expression vector
T1 chain: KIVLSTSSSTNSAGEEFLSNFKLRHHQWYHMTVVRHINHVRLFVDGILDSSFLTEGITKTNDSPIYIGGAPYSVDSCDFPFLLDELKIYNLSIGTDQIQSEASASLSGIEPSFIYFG
Experiment: sandwich lateral flow immunoassay (gRAD strip, streptavidin test line); lower limit of detection of recombinant PSSP17 printed as 1-5 ng/mL

B1: anti-PF3D7_1218800 mAb 27C9.B5 IgG (antibody, V domains shown)
VH: QVQVRQSGAEVVRPGTSVRVSCKTSGYAFTDYLIEWVKQRPGQGLEWIGVINPVRGTTNYSEKFKGKATLTADKSSGTAYMQFYSLTSDDSAVYFCARSRGSDGFPYWGQGTLVTVSA
VL: DVLMTQTPLSLPVSLGDQASISCRSSQSIVHSNGYTYLEWYLQKPGQSPKLLIYKLSNRFSGVPDRFSGSGSGTDFTLKISRVEAEDLGVYYCFQGSHIPYTFGGGTKLEIK
notes: Used covalently coupled to Europium(III)-chelate carboxylate polystyrene microparticles as the detection antibody of the SMAART-PSSP17 lateral flow assay; also called EuChelate nanoparticle-conjugated anti-PSSP17 27C9.B5 mAb; MP-27C9.B5 conjugate
- binding result: binds

B2: anti-PSSP17 mAb 10E2.B7 IgG (antibody, V domains shown)
VH: EVQLVESGGDLVKPGGSLKLSCAASGFTFSSYGMSWVRQTPDKRLEWVATISSGGSYIYYPDSMKGRFTMSRDNAKNTLYLQMSSLKSEDTAMYYCAREERDWLAYWGQGTLVTVSA
VL: DVVMTQSPLSLPVSLGDQASISCRSSQSLIHNNGDIYVHWYLQKPGQSPKLLIYKVSNRFSGVPDRFSGSGSGTDFTFKISRVEAEDLGVYFCSQSSHVPPTFGGGTKLEIK
notes: Used biotinylated (20:1 biotin:antibody) as the capture antibody of the SMAART-PSSP17 lateral flow assay; also called biotinylated anti-PSSP17 10E2.B7; Bio-Ab
- binding result: binds
